{"source": "patent US10004792B2", "about": "“Peptides and combination of peptides for use in immunotherapy against various cancers” (immatics biotechnologies GmbH, priority 2015, dated 2018)", "data": [{"biological_target": "HLA-A*02 (Homo sapiens, UniProt P04439, D140Y/D185E/D98H/E176V/E277Q/G131W/G231S/I119V/I121R/I166T/I218V/L300P/N151K/N90K/P208A/P217A/Q86G/Q94H/R138H/R169H)", "assay": "MHC binding assay (UV-ligand exchange, beta2m ELISA), HLA-A*02", "settings": "peptide exchange yield, binding to HLA-A*02, UV-ligand exchange, β2m ELISA", "text": "Candidate peptides for T cell based therapies according to the present invention were further tested for their MHC binding capacity (affinity). The individual peptide-MHC complexes were produced by UV-ligand exchange, where a UV-sensitive peptide is cleaved upon UV-irradiation, and exchanged with the peptide of interest as analyzed. Only peptide candidates that can effectively bind and stabilize the peptide-receptive MHC molecules prevent dissociation of the MHC complexes. To determine the yield of the exchange reaction, an ELISA was performed based on the detection of the light chain (β2m) of stabilized MHC complexes. The assay was performed as generally described in Rodenko et al. (Rodenko et al., 2006).\n96 well MAXISorp plates (NUNC) were coated over night with 2 ug/ml streptavidin in PBS at room temperature, washed 4× and blocked for 1 h at 37° C. in 2% BSA containing blocking buffer. Refolded HLA-A*02:01/MLA-001 monomers served as standards, covering the range of 15-500 ng/ml. Peptide-MHC monomers of the UV-exchange reaction were diluted 100 fold in blocking buffer. Samples were incubated for 1h at 37° C., washed four times, incubated with 2 ug/ml HRP conjugated anti-62m for 1 h at 37° C., washed again and detected with TMB solution that is stopped with […]. Absorption was measured at 450 nm. Candidate peptides that show a high exchange yield (preferably higher than 50%, most preferred higher than 75%) are generally preferred for a generation and production of antibodies or fragments thereof, and/or T cell receptors or fragments thereof, as they show sufficient avidity to the MHC molecules and prevent dissociation of the MHC complexes.", "values": [{"substance": "4 (KLMPGTYTL; listed as Homo sapiens) [compound 4]", "Peptide exchange": "++++ (>=75% = ++++)"}, {"substance": "12 (GLLPLLHRA; listed as Homo sapiens) [compound 12]", "Peptide exchange": "++++ (>=75% = ++++)"}, {"substance": "120 (VTPVTVSAV; listed as Homo sapiens) [compound 120]", "Peptide exchange": "+ (<20% = +)"}, {"substance": "125 (SLADYEHFV; listed as Homo sapiens) [compound 125]", "Peptide exchange": "++++ (>=75% = ++++)"}, {"substance": "126 (QMFQYFITV; listed as Homo sapiens) [compound 126]", "Peptide exchange": "++++ (>=75% = ++++)"}, {"substance": "129 (RLQDILWFL; listed as Homo sapiens) [compound 129]", "Peptide exchange": "++++ (>=75% = ++++)"}, {"substance": "133 (ALLPRLHQL; listed as Homo sapiens) [compound 133]", "Peptide exchange": "++++ (>=75% = ++++)"}, {"substance": "147 (YLMDDTVEI; listed as Homo sapiens) [compound 147]", "Peptide exchange": "++++ (>=75% = ++++)"}, {"substance": "153 (FISERVEVV; listed as Homo sapiens) [compound 153]", "Peptide exchange": "++++ (>=75% = ++++)"}, {"substance": "229 (AILAHLNTV; listed as Homo sapiens) [compound 229]", "Peptide exchange": "++++ (>=75% = ++++)"}, {"substance": "245 (SLLDLPLSL; listed as Homo sapiens) [compound 245]", "Peptide exchange": "++++ (>=75% = ++++)"}, {"substance": "248 (YLDRFLAGV; listed as Homo sapiens) [compound 248]", "Peptide exchange": "++++ (>=75% = ++++)"}, {"substance": "249 (GLCERLVSL; listed as Homo sapiens) [compound 249]", "Peptide exchange": "++++ (>=75% = ++++)"}, {"substance": "257 (GLYTDPCGV; listed as Homo sapiens) [compound 257]", "Peptide exchange": "++++ (>=75% = ++++)"}, {"substance": "258 (LLSERFINV; listed as Homo sapiens) [compound 258]", "Peptide exchange": "++++ (>=75% = ++++)"}]}, {"system": "CD8+ T cells", "assay": "In vitro immunogenicity: T-cell priming with aAPCs loaded with peptide/MHC and anti-CD28, multimer staining", "type": "cell-based, human", "settings": "in vitro immunogenicity of HLA class I peptides; peptide-specific multimer staining after aAPC priming of CD8+ T cells", "text": "In order to obtain information regarding the immunogenicity of the TUMAPs of the present invention, the inventors performed investigations using an in vitro T-cell priming assay based on repeated stimulations of CD8+ T cells with artificial antigen presenting cells (aAPCs) loaded with peptide/MHC complexes and anti-CD28 antibody.\nIn order to perform in vitro stimulations by artificial antigen presenting cells loaded with peptide-MHC complex (pMHC) and anti-CD28 antibody, the inventors first isolated CD8+ T cells from fresh HLA-A*02 leukapheresis products via positive selection using CD8 microbeads (Miltenyi Biotec, Bergisch-Gladbach, Germany) of healthy donors obtained from the University clinics Mannheim, Germany, after informed consent.\nPBMCs and isolated CD8+ lymphocytes were incubated in T-cell medium (TCM) until use consisting of RPMI-Glutamax (Invitrogen, Karlsruhe, Germany) supplemented with 10% heat inactivated human AB serum (PAN-Biotech, Aidenbach, Germany), 100 U/ml Penicillin/100 μg/ml Streptomycin (Cambrex, Cologne, Germany), 1 mM sodium pyruvate (CC Pro, Oberdorla, Germany), 20 µg/ml Gentamycin (Cambrex). 2.5 ng/ml IL7 (PromoCell, Heidelberg, Germany) and 10 U/ml IL-2 (Novartis Pharma, Nurnberg, Germany) were also added to the TCM at this step.\nGeneration of pMHC/anti-CD28 coated beads, T-cell stimulations and readout was performed in a highly defined in vitro system using four different pMHC molecules per stimulation condition and 8 different pMHC molecules per readout condition.\nThe purified co-stimulatory mouse IgG2a anti human CD28 Ab 9.3 (Jung et al., 1987) was chemically biotinylated using Sulfo-N-hydroxysuccinimidobiotin as recommended by the manufacturer (Perbio, Bonn, Germany). Beads used were 5.6 μm diameter streptavidin coated polystyrene particles (Bangs Laboratories, Illinois, USA).\npMHC used for positive and negative control stimulations were A*0201/MLA-001 (peptide […] (SEQ ID NO. 303) from modified Melan-A/MART-1) and A*0201/DDX5-001 ([…] from DDX5, SEQ ID NO. 304), respectively.\n800.000 beads/200 μl were coated in 96-well plates in the presence of 4×12.5 ng different biotin-pMHC, washed and 600 ng biotin anti-CD28 were added subsequently in a volume of 200 μl. Stimulations were initiated in 96-well plates by co-incubating 1×10^6 CD8+ T cells with 2×10^5 washed coated beads in 200 μI TCM supplemented with 5 ng/ml IL-12 (PromoCell) for 3 days at 37° C. Half of the medium was then exchanged by fresh TCM supplemented with 80 U/ml IL-2 and incubating was continued for 4 days at 37° C. This stimulation cycle was performed for a total of three times. For the pMHC multimer readout using 8 different pMHC molecules per condition, a two-dimensional combinatorial coding approach was used as previously described (Andersen et al., 2012) with minor modifications encompassing coupling to 5 different fluorochromes. Finally, multimeric analyses were performed by staining the cells with Live/dead near IR dye (Invitrogen, Karlsruhe, Germany), CD8-FITC antibody clone SK1 (BD, Heidelberg, Germany) and fluorescent pMHC multimers. For analysis, a BD LSRII SORP cytometer equipped with appropriate lasers and filters was used. Peptide specific cells were calculated as percentage of total CD8+ cells. Evaluation of multimeric analysis was done using the FlowJo software (Tree Star, Oreg., USA). In vitro priming of specific multimer+CD8+ lymphocytes was detected by comparing to negative control stimulations.", "values": [{"substance": "4 (KLMPGTYTL; listed as Homo sapiens) [compound 4]", "Wells positive [%]": "+ (<20% = +)"}, {"substance": "12 (GLLPLLHRA; listed as Homo sapiens) [compound 12]", "Wells positive [%]": "++++ (>=70% = ++++)"}, {"substance": "249 (GLCERLVSL; listed as Homo sapiens) [compound 249]", "Wells positive [%]": "+ (<20% = +)"}]}]}
